Source: patent US8614103B2, “Compositions and methods for treating sphingosine-1-phosphate (S1P) related ocular diseases and conditions” (Lpath, Inc., priority 2006, dated 2013)

Key:
[1] = system: macrophage and mast cell infiltration; assay: Murine infarct model, immune cell infiltration; type: in vivo, mouse; conditions: 25 mg/kg; four days post-MI
Protocol: SPHINGOMAB reduced immune-cell wound infiltration in vivo. Mice were subjected to MI, treated with saline or 25 mg/kg SPHINGOMAB 48 hr. after surgery and then sacrificed on day 4. SPHINGOMAB reduced macrophage (A) and mast cell (B) infiltration into the wound. Data are represented as fold decrease of saline-treated values.
Based upon the similarities of immune and inflammatory responses in CNV and CVD, the efficacy of SPHINGOMAB to mitigate immune cell infiltration into a wound was evaluated in a murine infarct model as an indication of SPHINGOMAB's potential effects in mitigating these damages during AMD [Vine, et al. (2005), Opthalmology, vol 112: 2076-80; and Seddon and Chen (2004), Int Opthalmol Clin, vol 44: 17-39]. Four days post-MI, macrophage and mast cell infiltration was evaluated using MAC-1 and MCG35 antibodies, respectively, within the area at risk.

CNV lesions = assay: CNV animal model, murine vs humanized variants (Example 17); type: in vivo, mouse; conditions: 0.5 ug intravitreal Day 0 and Day 6; 14 days post laser; vs saline
Protocol: The humanized antibody variants and the murine antibody were compared for their ability to inhibit neo-vascularization in the CNV animal model of AMD as shown in FIG. 13. […] Mice were sacrificed 14 days post laser surgery. Control mice were treated with aqueous buffer (PBS) or an isotype-matched non-specific antibody. Three of the humanized variants inhibited angiogenesis essentially equivalently to the murine antibody as assessed by measurement of CNV area. CNV lesion volumes are represented as means±SEM. […]
The morphometric and volumetric CNV lesions were measured as follows. […]
Captured digital images were evaluated morphometrically using ImageJ software (Research Services Branch, National Institutes of Health, Bethesda, Md.). Images were split into separate RGB channels for analysis of the red and green channels as follows: 1) a calibration for the specific objective and microscope was applied to set the pixel-to-length ratio; 2) a threshold was applied using the Otsu algorithm; 3) images will be made binary; 4) a region-of-interest (ROI) was outlined to include the entire lesion area; 5) a particle analysis was performed to quantify the pixel area above the threshold level within the ROI. […]

[2] = system: ovarian cancer (OVCAR3) cells; assay: S1P-induced IL-8 release; type: cell-based, human; conditions: 1 uM S1P; 22 hours
Protocol: FIG. 12 has two panels, A and B, that show data from in vitro cell assays performed using several humanized monoclonal antibody variants. […] As described in Example 16, below, SKOV3 cells were treated for 48 hr. with 500 nM Taxol (Tax) in the presence or absence of 500 nM S1P with huMAbHCLC3 (309), huMAbHCLC5 (308), muMAb S1P (muMAb), or non-specific IgG1 (NS) at a concentration of 1 μg/mL. Values represent means±SEM (n=3) with triplicates run for each data point. “NT” means not treated, and “Veh” stans for vehicle only. […] In the experiments described in detail in Example 16, below, 100,000 OVCAR3 cells/well were starved overnight and 1 uM S1P was added to the culture media alone or pre-incubated with 1 ug/ml of non-specific antibody (NS), pATH201+pATH309 (LC3), pATH201+pATH308 (LC5), pATH207+pATH309 (cysLC3), pATH207+pATH308 (cysLC5), and 0.1 ug/ml (M0.1), 1 ug/ml (M1) or 10 ug/ml (M10) of anti-S1P murine antibody. After 22 hours of incubation, cell supernatants were collected and IL-8 secretion was measured by ELISA using an R&D system Quantikine human CXCL8/IL-8 kit. In the figure “NT” refers to non-treated cells.
In parallel, all the variants were tested for their effects on S1P-induced cytokine release from cancer cells. S1P is known to elicit significant release of IL-8 into the cell-conditioned media from cancer cells.

HUVECs = assay: HUVEC tube formation on Matrigel; type: cell-based, human; conditions: co-incubated with S1P; GF-reduced Matrigel
Protocol: Experiments were performed as described by Visentin et al. (Cancer Cell 2006 March; 9(3):225-38).

B1: LT1002: murine monoclonal antibody to S1P, IgG1 kappa, hybridoma clone 306D326.26 (antibody, listed as Mus sp., V domains shown)
VH: QAHLQQSDAELVKPGASVKISCKVSGFIFIDHTIHWMKQRPEQGLEWIGCISPRHDITKYNEMFRGKATLTADKSSTTAYIQVNSLTFEDSAVYFCARGGFYGSTIWFDFWGQGTTLTVS
VL: ETTVTQSPASLSMAIGEKVTIRCITTTDIDDDMNWFQQKPGEPPNLLISEGNILRPGVPSRFSSSGYGTDFLFTIENMLSEDVADYYCLQSDNLPFTFGSGTKLEIK
[1]
  density of inflammatory macrophages: dramatically attenuated
  density of mast cells: dramatically attenuated
CNV lesions
  Percent inhibition of lesion size: approximately 80%
[2]
  reduction of S1P-induced IL-8 release: reduced IL-8 release from ovarian cancer cells in a concentration-dependent manner
HUVECs
  capillary-like structure (tube) formation: failed to form capillary-like structures
